Experiments:
NLuc-UGA PTC = assay: NanoLuc nonsense reporter screen (all-in-one HTC plasmid), TGA/UGA PTC, HEK293 cells; format: cell-based, human
Excerpt: Several different nonsense mutations cause CF, thus underlying roughly 10% of all CF disease. FIG. 7. These cases are concentrated into […] specific genetic lesions: E60X, R75X, G542X, R553X, Q890X, Y1092X, R1158X, R1162X and W1282X. A screen was developed to screen existing human tRNA sequences for modification and tolerance to anti-codon editing. To this end, roughly 144 ACE-tRNAs were candidates to test for those that could be used to promote the repair of the disease causative nonsense codon and the expression of the full-length protein. Specifically, using the scheme described in FIG. 11, tRNA libraries were generated to identify novel tRNA sequences that encode for ACE tRNA with the ability to repair the top CF causative nonsense mutations. Specifically, 10 ng of annealed oligos encoding the ACE-tRNAs were combined with 50 ng of NanoLuc reporter plasmid, 1 μl 10×CutSmart Buffer (NEB), 1 μl T4 ligase (NEB), 10 mM ATP and 1 μl BbsI (NEB) and cycled in a thermocycler as described in FIG. 11. 1 μl of the reaction was transformed into competent E. coli and the transformants were plated on ampicillin agar plates. One transformant was picked per plate was picked, grown in 1 ml of LB under ampicillin selection, miniprepped and sequence verified.
Screening studies were first performed to identify the best ACE-tRNA Candidates from tryptophan and glycine. 125 ng of sequence verified miniprep cDNA of NanoLuc reporter plasmid with ACE-tRNA was transfected into HEK cells using calcium phosphate. HEK cells were plated in 96 well plates at 4×10^4 the day prior. 24 hours after transfection the media was replaced with 20 μl of PBS and 15 μl of NanoGlo reagent (Promega) was added. Plates were read on a SpectraMax i3 (Molecular Devices). Data are of replicates of 3 or greater. FIG. 8.
FIG. 10. An additional modification of the tRNA was made to further enable their function for the purpose of suppression of nonsense codons and the promotion of protein expression. […] To this end, single and double mutations were directly engineered into the t-stem loop of tRNA Trpchr17.trna39—an ACE-tRNA identified with activity for the rescue of tryptophan TGA nonsense codons. Thirty-eight tRNA t-stem variants were thus generated and screened in HEK cells transiently transfected with the nonsense rescue reporter construct shown in FIG. 4. […] This is a generalizable modification, that is, new tRNA sequences identified, by example 1 and 2, can be made better (for their ability to rescue nonsense codons) through further rationale modifications. Such approaches aid in the therapeutic utility of ACE-tRNA directed to tissue types with low abundance target RNA or where tRNA delivery may be limiting.
In order to enable the identification of the nucleotide composition and functional ability to suppress nonsense codons by new types of tRNA, an All-In-One Plasmid With A One Pot Cloning Reaction was invented for High Throughput Cloning FIG. 11. This approach enables the facile investigation of ACE-tRNA activity via luciferase activity in a standard 96 well format. Briefly, synthetic nucleotide sequences encoding for tRNA are ligated into the NanoLuc Reporter plasmid, with an example of the TGA nonsense reporter plasmid variant shown in FIG. 11. […] and TAG (amber) stop codon rescue vectors have been successfully designed and implemented in FIGS. 16-19. The benefits are the approach is that DNA oligos encoding for tRNA libraries can be ligated in the NanoLuc reporter plasmid with the presence of the restriction enzyme and ligase with the reaction pushed to nearly 100% incorporation of tRNA insert (FIG. 11)-thus the ‘one-pot’ designation. The reaction is transformed into E. coli, with the resultant cDNA purified by standard methods. […]

NLuc-UAG PTC = assay: NanoLuc nonsense reporter screen (all-in-one HTC plasmid), TAG/UAG PTC, HEK293 cells; format: cell-based, human
Excerpt: In order to enable the identification of the nucleotide composition and functional ability to suppress nonsense codons by new types of tRNA, an All-In-One Plasmid With A One Pot Cloning Reaction was invented for High Throughput Cloning FIG. 11. This approach enables the facile investigation of ACE-tRNA activity via luciferase activity in a standard 96 well format. Briefly, synthetic nucleotide sequences encoding for tRNA are ligated into the NanoLuc Reporter plasmid, with an example of the TGA nonsense reporter plasmid variant shown in FIG. 11. […] and TAG (amber) stop codon rescue vectors have been successfully designed and implemented in FIGS. 16-19. The benefits are the approach is that DNA oligos encoding for tRNA libraries can be ligated in the NanoLuc reporter plasmid with the presence of the restriction enzyme and ligase with the reaction pushed to nearly 100% incorporation of tRNA insert (FIG. 11)-thus the ‘one-pot’ designation. The reaction is transformed into E. coli, with the resultant cDNA purified by standard methods. Another benefit of the invented method is that the tRNA and reporter gen are within the single expression cassette, therefore lowering biological variability and improving data quality obtaining in resulting screens of tRNA suppression activity. The purified cDNA plasmids are then screened in high-throughput 96 well format for their ability to repair nonsense codons by inferred luciferase activity. The approach is suitable for the high-throughput screening of hundreds to thousands of tRNA for novel therapeutic activity.
The rationale of this study is rooted in the observation that there are multiple tRNA genes with unique sequences (isodecoders) for a given cognate amino acid (isoacceptors), leading to >400 tRNAs annotated in the human genome (http:lowelab.ucsc.edu/GtRNAdb/)^28, 29. First, tRNA genes were examined to identify individual ACE-tRNAs that retain suppression efficacy of PTCs in mammalian cells. In order to maximize sequence coverage, an all-in-one cDNA plasmid was generated that supports both high-throughput cloning (HTC) of ACE-tRNAs and quantitative measurement of PTC suppression using luminescence following delivery to mammalian cells, FIG. 21B. ACE-tRNA sequences were cloned as DNA oligos into the HTC plasmid using Golden Gate cloning^30 paired with ccdB negative selection^31. This strategy produced ˜100% cloning efficiency. ACE-tRNA suppression efficiency was read out from a split NanoLuc luciferase (NLuc) NanoBiT platform whereby the PTC of interest (UGA, UAA, or UAG) was introduced in-frame at the junction between the large bit and small bit domains, FIG. 21B^32, using a 96-well format and normalized to background obtained in NLuc-PTC expressing cells. Twenty-one glycine ACE-tRNAs were first evaluated for suppression of the UGA PTC, FIG. 22, top left, column 1 (violet). […] Given the high sequence conservation among the Gly-tRNAs screened for anti-codon tolerance (FIG. 27), it would be difficult to predict de novo which tRNA would be most amenable to anticodon-editing.
The parent plasmid used was pcDNA3.1(+). The cDNA encoding pNLuc was Gibson Assembled (New England Biolabs, USA) into restriction sites HindIII and XhoI. A glycine (codon gga), tryptophan ([…]), amber (tag), opal (tga) and ochre (taa), were added to amino acid position 160 during cDNA per. The pcDNA3.1(+) polyA sequence was replaced for one with no BbsI restriction sites using per based Gibson Assembly. The high throughput ACE-tRNA Golden Gate cloning site was generated by first inserting the 5′ leader sequence of the human tRNA^Tyr gene (bold) with a T7 promoter sequence upstream (italics)
tRNA gene sequences were obtained from the tRNA database tRNAscan-SE (http://gtrnadb.ucsc.edu/index.html; PMID: 26673694). […]

“ArgTGAchr17.trna19: ACE-tRNA Arg, TGA suppressor, SEQ ID NO: 5” was tested, and the Ranking (NLuc-UGA PTC; Table 1, Arg TGA) was “#2”.

With “ArgTGAchr7.trna5: ACE-tRNA Arg, TGA suppressor, SEQ ID NO: 7” the Ranking (NLuc-UGA PTC; Table 1, Arg TGA) was “#4”.

For “TrpTAGchr17.trna39: ACE-tRNA Trp, TAG suppressor, SEQ ID NO: 35”, the Ranking (NLuc-UAG PTC; Table 4, Trp TAG) was “#3”.

“TrpTAGchr6.trna171: ACE-tRNA Trp, TAG suppressor, SEQ ID NO: 34” was tested, and the Ranking (NLuc-UAG PTC; Table 4, Trp TAG) was “#2”.

For “TrpTGAchr6.trna171: ACE-tRNA Trp, TGA suppressor, SEQ ID NO: 50”, the Ranking (NLuc-UGA PTC; Table 7, Trp TGA) was “#3”.

For “ArgTGAchr9.trna6/nointron: ACE-tRNA Arg, TGA suppressor, SEQ ID NO: 4”, the Ranking (NLuc-UGA PTC; Table 1, Arg TGA) was “#1”.

B1: ArgTGAchr9.trna6/withintron: ACE-tRNA Arg, TGA suppressor, SEQ ID NO: 9 (nucleic acid)
chain: CGTCGGCTCTGTGGCGCAATGGATAGCGCATTGGACTTCAAGCTGAGCCTAGTGTGGTCATTCAAAGGTTGTGGGTTCGAGTCCCACCAGAGTCG
modifications: expressed or natural sequence
For B1, the Ranking (NLuc-UGA PTC; Table 1, Arg TGA) was “#5”.

B2: TS-38: t-stem variant of Trpchr17.trna39, SEQ ID NO: 3 (nucleic acid)
chain: GGCCTCGTGGCGCAACGGTAGCGCGTCTGACTTCAGATCAGAAGGTTCCGGGTTCAAATCCCGGCGGGGTCA
modifications: expressed or natural sequence
B2 was tested, and the “enhancement of the suppression ability of Trpchr17.trna39 by t-stem mutation” value (NLuc-UGA PTC; HEK cells, luciferase 24 hours post-transfection) was “roughly 250%”.

B3: TrpTGAchr17.trna10: ACE-tRNA Trp, TGA suppressor, SEQ ID NO: 49 (nucleic acid)
chain: GACCTCGTGGCGCAATGGTAGCGCGTCTGACTTCAGATCAGAAGGTTGCGTGTTCAAGTCACGTCGGGGTCA
modifications: expressed or natural sequence
In the case of B3, the Ranking (NLuc-UGA PTC; Table 7, Trp TGA) is reported as “#2”.

B4: ArgTGAchr16.trna3: ACE-tRNA Arg, TGA suppressor, SEQ ID NO: 10 (nucleic acid)
chain: CGTCGCCCCGGTGGCCTAATGGATAAGGCATTGGCCTTCAAAGCCAGGGATTGTGGGTTCGAGTCCCACCCGGGGTA
modifications: expressed or natural sequence
With B4 the Ranking (NLuc-UGA PTC; Table 1, Arg TGA) was “#5”.

B5: ArgTGAchr17.trna3/withinron: ACE-tRNA Arg, TGA suppressor, SEQ ID NO: 12 (nucleic acid)
chain: CGTCGGCTCTGTGGCGCAATGGATAGCGCATTGGACTTCAAGTGACGAATAGAGCAATTCAAAGGTTGTGGGTTCGAATCCCACCAGAGTCG
modifications: expressed or natural sequence
B5 was tested, and the Ranking (NLuc-UGA PTC; Table 1, Arg TGA) was “#7”.

B6: ArgTGAchr1.trna10/nointron: ACE-tRNA Arg, TGA suppressor, SEQ ID NO: 6 (nucleic acid)
chain: CGTCGGCTCCGTGGCGCAATGGATAGCGCATTGGACTTCAAATTCAAAGGTTCCGGGTTCGAGTCCCGGCGGAGTCG
modifications: expressed or natural sequence
B6 was tested, and the Ranking (NLuc-UGA PTC; Table 1, Arg TGA) was “#3”.

B7: ArgTGAchr17.trna3/nointron: ACE-tRNA Arg, TGA suppressor, SEQ ID NO: 8 (nucleic acid)
chain: CGTCGGCTCTGTGGCGCAATGGATAGCGCATTGGACTTCAAATTCAAAGGTTGTGGGTTCGAATCCCACCAGAGTCG
modifications: expressed or natural sequence
For B7, the Ranking (NLuc-UGA PTC; Table 1, Arg TGA) was “#4”.

B8: GlyTGAchr17.trna9: ACE-tRNA Gly, TGA suppressor, SEQ ID NO: 55 (nucleic acid)
chain: GCGTTGGTGGTATAGTGGTAAGCATAGCTGCCTTCAAAGCAGTTGACCCGGGTTCGATTCCCGGCCAACGCA
modifications: expressed or natural sequence
In the case of B8, the Ranking (NLuc-UGA PTC; Table 8, Gly TGA) is reported as “#3”.

B9: GlyTGAchr1.trna107: ACE-tRNA Gly, TGA suppressor, SEQ ID NO: 54 (nucleic acid)
chain: GCGTTGGTGGTATAGTGGTGAGCATAGCTGCCTTCAAAGCAGTTGACCCGGGTTCGATTCCCGGCCAACGCA
modifications: expressed or natural sequence
For B9, the Ranking (NLuc-UGA PTC; Table 8, Gly TGA) was “#2”.

B10: GlnTAGchr6.trna63: ACE-tRNA Gln, TAG suppressor, SEQ ID NO: 18 (nucleic acid)
chain: CGTCGGTCCCATGGTGTAATGGTTAGCACTCTGGACTCTAAATCCAGCAATCCGAGTTCGAATCTCGGTGGGACCT
modifications: expressed or natural sequence
B10 was tested, and the Ranking (NLuc-UAG PTC; Table 2, Gln TAG) was “#3”.

B11: GlnTAGchr6.trna132: ACE-tRNA Gln, TAG suppressor, SEQ ID NO: 20 (nucleic acid)
chain: CGTCGGCCCCATGGTGTAATGGTCAGCACTCTGGACTCTAAATCCAGCGATCCGAGTTCAAATCTCGGTGGGACCC
modifications: expressed or natural sequence
With B11 the Ranking (NLuc-UAG PTC; Table 2, Gln TAG) was “#5”.

B12: GlnTAGchr1.trna17: ACE-tRNA Gln, TAG suppressor, SEQ ID NO: 16 (nucleic acid)
chain: CGTCGGTTCCATGGTGTAATGGTGAGCACTCTGGACTCTAAATCCAGCGATCCGAGTTCGAGTCTCGGTGGAACCT
modifications: expressed or natural sequence
With B12 the Ranking (NLuc-UAG PTC; Table 2, Gln TAG) was “#1”.

B13: GlnTAGchr17.trna14: ACE-tRNA Gln, TAG suppressor, SEQ ID NO: 19 (nucleic acid)
chain: CGTCGGTCCCATGGTGTAATGGTTAGCACTCTGGACTCTAAATCCAGCGATCCGAGTTCAAATCTCGGTGGGACCT
modifications: expressed or natural sequence
For B13, the Ranking (NLuc-UAG PTC; Table 2, Gln TAG) was “#4”.

B14: GlnTAGchr6.trna175: ACE-tRNA Gln, TAG suppressor, SEQ ID NO: 17 (nucleic acid)
chain: CGTCGGCCCCATGGTGTAATGGTTAGCACTCTGGACTCTAAATCCAGCGATCCGAGTTCAAATCTCGGTGGGACCT
modifications: expressed or natural sequence
For B14, the Ranking (NLuc-UAG PTC; Table 2, Gln TAG) was “#2”.

B15: ArgTGAchr1.trna10/withintron: ACE-tRNA Arg, TGA suppressor, SEQ ID NO: 11 (nucleic acid)
chain: CGTCGGCTCCGTGGCGCAATGGATAGCGCATTGGACTTCAAGAGGCTGAAGGCATTCAAAGGTTCCGGGTTCGAGTCCCGGCGGAGTCG
modifications: expressed or natural sequence
B15 was tested, and the Ranking (NLuc-UGA PTC; Table 1, Arg TGA) was “#6”.

B16: TrpTAGchr12.trna6: ACE-tRNA Trp, TAG suppressor, SEQ ID NO: 36 (nucleic acid)
chain: CGTCGACCTCGTGGCGCAACGGTAGCGCGTCTGACTCTAGATCAGAAGGCTGCGTGTTCGAATCACGTCGGGGTCA
modifications: expressed or natural sequence
B16 was tested, and the Ranking (NLuc-UAG PTC; Table 4, Trp TAG) was “#4”.

From patent US20230203482A1, “Methods of Rescuing Stop Codons via Genetic Reassignment with ACE-tRNA” (THE WISTAR INSTITUTE OF ANATOMY AND BIOLOGY, priority 2017, published 2023)
